US20250154231A1 (RQBIO COVID, published 2025)
Substitutions are numbered along the chain they refer to.

Biological target: SARS-CoV-1 S protein (SARS-CoV-1, UniProt P59594 14-1195)
Test: ELISA

B1: Omi16 (antibody, V domains shown)
VH: EVQLVESGGGVVQPGGSLRLSCAASGIIVSANYMTWVRQAPGKGLEWVSVIYPGGSTFYADSVKGRFTISRDNSKNTLYLQMNSLRVEDSAVYYCARDLELAGFNDFWGQGTLVTVSS
VL: DVVMTQSPGTLALSPGERATLSCRTSQSVSSNYLAWYQQKPGQAPRLLIYGASSRATGIPDRFSGSGSGTDFTLTISRLEPEDFAVYYCQQFGSSPRYTFGQGTKVEIK
  binding result: no binding

B2: Omi17 (antibody, V domains shown)
VH: QVQLVESGGGVVQPGGSLRLSCAASGVTVSSNYMSWVRQAPGKGLEWVSVLYAGGSTFYADSVKGRFTISRDNSKNTLYLQMNSLRAEDTAAYYCARDLAVAGFLDSWGQGTLVTVSS
VL: B1 VL with V2I, A12S, T25A, S28G, N32I, L48V, I49L, F92Y
  binding result: no binding

B3: Omi18 (antibody, V domains shown)
VH: QVQLVESGGGLIQPGGSLRLSCAASGITVSSNYMTWVRQAPGKGLEWVSLLYAGGSAFYADSVKGRFTISRDNSKNTLYLLMNSLRVGDTAVYYCARDLQVYGMDVWGQGTTVTVSS
VL: SYELTQPPSVSVAPGQTARITCGGNNDGAKSVHWYQQKPGQAPVLVVYDDSDRPSGIPERFSGSNSGNTATLTITRIEAGDEADYYCQVWDSSRDHVFGTGTKVTVL
  binding result: no binding
